Laboratory results as given in publication PMC10290082.

Molecular target: endogenous MDM2 of SH-SY5Y cells (human (endogenous in SH-SY5Y)) (UniProt Q00987)
Assay: AlphaScreen or HTRF; AlphaLISA of extracts of SH-SY5Y cells (MG132), endogenous proteins; D1V2Z-CaptSure acceptor beads and biotinylated HT7 on donor beads; background from Tau-KO SH-SY5Y cells

Sequence of endogenous MDM2 of SH-SY5Y cells (human (endogenous in SH-SY5Y)) (Q00987 whole entry): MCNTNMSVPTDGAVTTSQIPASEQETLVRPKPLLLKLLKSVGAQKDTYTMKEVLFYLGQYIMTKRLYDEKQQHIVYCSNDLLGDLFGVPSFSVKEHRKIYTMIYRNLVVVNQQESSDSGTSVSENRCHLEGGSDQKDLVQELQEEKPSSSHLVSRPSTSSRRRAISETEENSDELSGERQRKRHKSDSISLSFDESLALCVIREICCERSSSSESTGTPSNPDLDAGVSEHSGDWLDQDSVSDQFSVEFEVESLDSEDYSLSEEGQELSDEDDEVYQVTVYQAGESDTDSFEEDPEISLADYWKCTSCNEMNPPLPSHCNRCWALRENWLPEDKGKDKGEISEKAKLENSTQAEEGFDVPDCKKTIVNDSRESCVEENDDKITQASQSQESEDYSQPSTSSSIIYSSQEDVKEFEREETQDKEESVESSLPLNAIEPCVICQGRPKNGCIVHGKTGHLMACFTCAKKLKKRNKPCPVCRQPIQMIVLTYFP

AlphaLISA signal, fold over background of Tau-KO SH-SY5Y cells: 2.7 fold
Substance: endogenous Tau of SH-SY5Y cells (from UniProt P10636 1-758) (natural protein)
